# According to PMC3782427, “The N-Terminal Region of the Human Autophagy Protein ATG16L1 Contains a Domain That Folds into a Helical Structure Consistent with Formation of a Coiled-Coil” (PLoS ONE, 2013):
# B1: human ATG16L1 coiled-coil domain construct 3 (CCD3-FLAG-6His), residues M126-A207 (domain or fragment, UniProt Q676U5-1 126-207, looked up)
# chain: MNEAKIAECLQTISDLETECLDLRTKLCDLERANQTLKDEYDALQITFTALEGKLRKTTEENQELVTRWMAEKAQEANRLNA
# notes: human ATG16L1 isoform 1 (NP_110430.5, full length M1-Y607), coiled-coil domain, residues M126-A207; amplified from pCMV-FLAG-ATG16L1; Expressed as GST-CCD3-FLAG-6His with a TEV site between GST and the insert; Calculated molecular weight printed as 11.3 kDa; also called CCD3FH; minimal coiled-coil domain; source: E. coli Rosetta 2, purified (glutathione sepharose, on column TEV cleavage, HIC); …
# Target: the molecule itself
# Experiment: native gel or EMSA; Native-PAGE, Novex 4-20% Tris-glycine native gel, 1 ug protein a lane, before and after freeze/thawing at -80 C
protein,measurement,value
B1,stoichiometry N,2
